Laboratory results: the RNAGym collection of RNA variant scans (doi:10.1021/acssynbio.7b00057)

B1: Pistol ribozyme (parent)
chain: GGGUCGUUGUUCCAUAAUCGCGUGGAUAUGGCACGCAAGUUUCUACCGGGCACCGUAAAUGUCCGACUGGAGCCGUUCGGGCGGCUAUAAACAGACCUCAGGCCCGAAGCGUGGCGGCACCUGCCGCCGGUGGUAAAAAAGAUCGGAAGAGCACACGUCU

Variants of: B1
Experiment: aptazyme ON/OFF ratio, guanine; higher = stronger switching; co-transcriptional cleavage with and without guanine

Row | Variant | aptazyme ON/OFF ratio
1 | U8C G9U U10A U11A C12G C13G | 1.16
2 | U8C G9U U10A U11A C12G C13U | 1.21
3 | U8C G9U U10A U11A C12G C13A | 1.2
4 | U8C G9U U10A U11G C12G C13U | 1.14
5 | U8C G9U U10A U11G C12G C13G | 1.12
6 | U8C G9U U10A U11G C12G C13A | 1.13
7 | U8C G9U U11A C12G C13U | 1.22
8 | U8C G9U U11A C12G C13A | 1.13
9 | U8C G9U U11A C12G C13G | 1.12
10 | U8C G9U U10C U11G C13G | 1.2
11 | U8C G9U U10C U11G C13A | 1.23
12 | U8C G9U U10C U11G C13U | 1.28
13 | U8C G9U U11C C12G C13U | 1.15
14 | U8C G9U U11C C12G C13A | 1.13
15 | U8C G9U U11C C12G C13G | 1.03
16 | U8C G9U U10C C13G | 1.04
17 | U8C G9U U10C C13A | 1.03
18 | U8C G9U U10C C13U | 1.27
19 | U8C G9U U10A U11C C13U | 1.02
20 | U8C G9U U10A U11C C13G | 1.06
21 | U8C G9U U10A U11C C13A | 1.09
22 | U8C U10A U11C C12U C13U | 1.06
23 | U8C U10A U11C C12U C13G | 1.07
24 | U8C U10A U11C C12U C13A | 1.06

Row | Variant | aptazyme ON/OFF ratio
25 | U8C G9U U10G C12U | 1.35
26 | U8C G9U U10G C12G | 1.6
27 | U8C G9U U10G C12A | 1.66
28 | U8C U10A U11A C13G | 1.22
29 | U8C U10A U11A C13U | 1.21
30 | U8C U10A U11A C13A | 1.17
31 | U8C G9U U11C C12U | 1.09
32 | U8C G9U U11C C12G | 1.24
33 | U8C G9U U11C C12A | 1.12
34 | U8C G9U U10G U11A C12U C13A | 1.24
35 | U8C G9U U10G U11A C12U C13G | 1.16
36 | U8C G9U U10G U11A C12U C13U | 1.31
37 | U8C U10C U11A C12G | 1.35
38 | U8C U10C U11A C12U | 1.39
39 | U8C U10C U11A C12A | 1.34
40 | U8C U10A U11A C12A C13G | 1.07
41 | U8C U10A U11A C12A C13U | 1.12
42 | U8C U10A U11A C12A C13A | 1.19
43 | U8C G9U U10G U11A C13G | 1.13
44 | U8C G9U U10G U11A C13U | 1.14
45 | U8C G9U U10G U11A C13A | 1.1
46 | U8C G9U U11G C12A | 1.08
47 | U8C G9U U11G C12U | 1.59
48 | U8C G9U U11G C12G | 1.2

Row | Variant | aptazyme ON/OFF ratio
49 | U8C U10C U11A C12U C13G | 1.23
50 | U8C U10C U11A C12U C13A | 1.26
51 | U8C U10C U11A C12U C13U | 1.35
52 | U8C U10C U11C C13A | 1.08
53 | U8C G9U U10G U11G C13G | 1.13
54 | U8C G9U U10G U11G C13A | 1.14
55 | U8C G9U U10G U11G C13U | 1.27
56 | U8C U10A U11G C12U C13U | 1.27
57 | U8C U10A U11G C12U C13G | 1.22
58 | U8C U10A U11G C12U C13A | 1.32
59 | U8C U10A U11G C13G | 1.29
60 | U8C U10A U11G C13A | 1.3
61 | U8C U10A U11G C13U | 1.23
62 | U8C G9U U10A U11G C13G | 1.11
63 | U8C G9U U10A U11G C13U | 1.32
64 | U8C G9U U10A U11G C13A | 1.2
65 | U8C G9U U10C U11C C13A | 1.03
66 | U8C G9U U10C U11C C13G | 1.02
67 | U8C G9U U10C U11C C13U | 1.04
68 | U8C U10C U11C C12A C13G | 1.33
69 | U8C U10C U11C C12A C13A | 1.32
70 | U8C U10C U11C C12A C13U | 1.36
71 | U8C U10A U11G C12G C13G | 1.39
72 | U8C U10A U11G C12G C13A | 1.43

Row | Variant | aptazyme ON/OFF ratio
73 | U8C U10A U11G C12G C13U | 1.28
74 | U8C G9U U10G U11A C12G C13A | 1.16
75 | U8C G9U U10G U11A C12G C13G | 1.33
76 | U8C G9U U10G U11A C12G C13U | 1.12
77 | U8C U10C | 2.68
78 | U8C U10A | 1.1
79 | U8C G9U U10C U11C C12G C13G | 1.15
80 | U8C G9U U10C U11C C12G C13U | 1.07
81 | U8C G9U U10C U11C C12G C13A | 1.06
82 | U8C G9U U11C C12A C13A | 1.11
83 | U8C G9U U11C C12A C13G | 1.04
84 | U8C G9U U11C C12A C13U | 1.18
85 | U8C G9U U10G U11C C13U | 1.11
86 | U8C G9U U10G U11C C13G | 1.04
87 | U8C G9U U10G U11C C13A | 1.24
88 | U8C U10A U11G C12A | 1.06
89 | U8C U10A U11G C12U | 1.33
90 | U8C U10A U11G C12G | 1.31
91 | U8C G9U U10C U11C C12G | 1.09
92 | U8C G9U U10C U11C C12A | 1.03
93 | U8C G9U U10C U11C C12U | 1.06
94 | U8C U10C U11A C12A C13A | 1.35
95 | U8C U10C U11A C12A C13U | 1.25
96 | U8C U10C U11A C12A C13G | 1.14

Row | Variant | aptazyme ON/OFF ratio
97 | U8C U10A C12A | 1.29
98 | U8C U10A C12U | 1.1
99 | U8C U10A C12G | 1.21
100 | U8C U10A C13U | 1.05
101 | U8C U10A C13G | 1.05
102 | U8C U10A C13A | 1.07
103 | U8C G9U U10C U11G C12A | 1.07
104 | U8C G9U U10C U11G C12U | 1.22
105 | U8C G9U U10C U11G C12G | 1.12
106 | U8C G9U U10G U11C C12G | 1.19
107 | U8C G9U U10G U11C C12A | 1.62
108 | U8C G9U U10G U11C C12U | 1.04
109 | U8C G9U U10A U11C C12A C13U | 1.24
110 | U8C G9U U10A U11C C12A C13A | 1.33
111 | U8C G9U U10A U11C C12A C13G | 1.08
112 | U8C G9U U11A C13G | 1.03
113 | U8C G9U U11A C13U | 1.33
114 | U8C G9U U11A C13A | 1.27
115 | U8C G9U U10G U11A C12A C13A | 1.44
116 | U8C G9U U10G U11A C12A C13G | 1.17
117 | U8C G9U U10G U11A C12A C13U | 1.72
118 | U8C G9U U10G U11C C12U C13U | 1.19
119 | U8C G9U U10G U11C C12U C13A | 1.19
120 | U8C G9U U10G U11C C12U C13G | 1.11

Row | Variant | aptazyme ON/OFF ratio
121 | U8C G9U U10G C12G C13A | 1.3
122 | U8C G9U U10G C12G C13G | 1.21
123 | U8C G9U U10G C12G C13U | 1.3
124 | U8C G9U U10G U11C C12A C13A | 1.22
125 | U8C G9U U10G U11C C12A C13G | 1.19
126 | U8C G9U U10G U11C C12A C13U | 1.52
127 | U8C G9U U10G U11C C12G C13A | 1.22
128 | U8C G9U U10G U11C C12G C13G | 1.26
129 | U8C G9U U10G U11C C12G C13U | 1.2
130 | U8C G9U U10G U11A | 1.13
131 | U8C G9U U10G U11G | 2.19
132 | U8C G9U U10G U11C | 1.13
133 | U8C G9U U10G C13A | 1.42
134 | U8C G9U U10G C13G | 1.21
135 | U8C G9U U10G C13U | 1.67
136 | U8C G9U U10C U11C C12U C13A | 1.07
137 | U8C G9U U10C U11C C12U C13G | 1.05
138 | U8C G9U U10C U11C C12U C13U | 1.07
139 | U8C G9U U10A U11G C12U C13U | 1.2
140 | U8C G9U U10A U11G C12U C13G | 1.14
141 | U8C G9U U10A U11G C12U C13A | 1.12
142 | U8C G9U U10C U11A C12U C13G | 1.09
143 | U8C G9U U10C U11A C12U C13A | 1.13
144 | U8C G9U U10C U11A C12U C13U | 1.2

Row | Variant | aptazyme ON/OFF ratio
145 | U8C G9U U10A U11C | 1.06
146 | U8C G9U U10A U11G | 1.74
147 | U8C G9U U10A U11A | 2.18
148 | U8C U10C C12A C13A | 1.33
149 | U8C U10C C12A C13G | 1.17
150 | U8C U10C C12A C13U | 1.42
151 | U8C U10A U11C C12A C13U | 1.08
152 | U8C U10A U11C C12A C13G | 1.07
153 | U8C U10A U11C C12A C13A | 1.11
154 | U8C G9U U11G C12A C13U | 1.26
155 | U8C G9U U11G C12A C13G | 1.18
156 | U8C G9U U11G C12A C13A | 1.16
157 | U8C U10A U11C C13U | 1.03
158 | U8C U10A U11C C13A | 1.02
159 | U8C U10A U11C C13G | 1.04
160 | U8C G9U U11C C12U C13A | 1.04
161 | U8C G9U U11C C12U C13G | 1.04
162 | U8C G9U U11C C12U C13U | 1.1
163 | U8C U10A U11C | 1.02
164 | U8C U10A U11A | 1.18
165 | U8C U10A U11G | 1.29
166 | U8C G9U U10C C12U C13U | 1.16
167 | U8C G9U U10C C12U C13G | 1.07
